This data set concerns the molecule itself. Nature of the data set: FRET or BRET. (Bioluminescence resonance energy transfer reports proximity on the nanometre scale.)

The text below walks through data of publication doi:10.1101/2021.09.03.458882 (bioRxiv, 2021).

B1: Glucose oxidase (from Aspergillus niger) (enzyme, UniProt P13006 17-605, looked up)
chain: LPHYIRSNGIEASLLTDPKDVSGRTVDYIIAGGGLTGLTTAARLTENPNISVLVIESGSYESDRGPIIEDLNAYGDIFGSSVDHAYETVELATNNQTALIRSGNGLGGSTLVNGGTWTRPHKAQVDSWETVFGNEGWNWDNVAAYSLQAERARAPNAKQIAAGHYFNASCHGVNGTVHAGPRDTGDDYSPIVKALMSAVEDRGVPTKKDFGCGDPHGVSMFPNTLHEDQVRSDAAREWLLPNYQRPNLQVLTGQYVGKVLLSQNGTTPRAVGVEFGTHKGNTHNVYAKHEVLLAAGSAVSPTILEYSGIGMKSILEPLGIDTVVDLPVGLNLQDQTTATVRSRITSAGAGQGQAAWFATFNETFGDYSEKAHELLNTKLEQWAEEAVARGGFHNTTALLIQYENYRDWIVNHNVAYSELFLDTAGVASFDVWDLLPFTRGYVHILDKDPYLHHFAYDPQYFLNELDLLGQAAATQLARNISNSGAMQTYFAGETIPGDNLAYDADLSAWTEYIPYHFRPNYHGVGTCSMMPKEMGGVVDNAARVYGVQGLRVIDGSIPPTQMSSHVMTVFYAMALKISDAILEDYASMQ
modifications: amine reactive dye Alexa Fluor 488 on one population and Alexa Fluor 532 on the other
For B1, the binding result is recorded as “binds”.
